This is an account of results in US20100183584A1, “CONFORMATION AND ACTIVITY OF GBETA5 COMPLEXES” (University Of Miami, priority 2007, published 2010).

Changes are numbered by the printed parent chain.

Assay [1] addresses full-length RGS7-Gβ5 complex (recombinant, co-expressed in cells) (bovine) (UniProt O46470). In words: GST pull-down from COS-7 lysate, western blot. In general terms: Immunoblotting shows a protein as a band on a membrane.
Assay [2] has as its target Gβ5-RGS7^249-469 complex (bovine) (UniProt O46470). In words: GST pull-down from COS-7 lysate, western blot.
The target of assay [3] is native RGS7-Gβ5 complex from mouse brain extract (mouse) (UniProt P62881). In words: GST pull-down from mouse brain extract, western blot.
For assay [4], the target named is muscarinic acetylcholine M3 receptor (M3R), full length, expressed in CHO cells (human) (UniProt P20309). As to the kind of experiment: cell-based or functional assay.
The target in assay [5] is T1, GST (UniProt P08515 1-218 = GST).
T1 construct: Negative control in pull-down and FRET assays; also called GST alone; immobilized GST
As to the kind of experiment: GST pull-down from CHO cell lysate.

In assay [6] the target is T2, Gβ5-RGS7 dimer (CFP-Gβ5/YFP-RGS7) (UniProt O14775+O46470).
T2 construct: YFP fusion of full-length RGS7 (YFP-RGS7) and CFP-Gβ5; expressed in transfected cells; host or cells: COS-7 (transient; lysate measured)
T2 sequence (O14775 1-353 isoform O14775-2): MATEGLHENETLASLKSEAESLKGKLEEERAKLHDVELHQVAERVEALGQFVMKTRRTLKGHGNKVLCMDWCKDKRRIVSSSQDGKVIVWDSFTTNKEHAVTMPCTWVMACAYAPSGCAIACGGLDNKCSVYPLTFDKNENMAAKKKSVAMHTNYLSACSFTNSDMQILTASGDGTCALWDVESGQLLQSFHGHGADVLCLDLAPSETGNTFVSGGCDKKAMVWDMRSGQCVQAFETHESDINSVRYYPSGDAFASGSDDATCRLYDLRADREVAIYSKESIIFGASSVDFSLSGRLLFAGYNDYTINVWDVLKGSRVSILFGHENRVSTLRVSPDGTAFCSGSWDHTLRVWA
T2 sequence (O46470 1-469): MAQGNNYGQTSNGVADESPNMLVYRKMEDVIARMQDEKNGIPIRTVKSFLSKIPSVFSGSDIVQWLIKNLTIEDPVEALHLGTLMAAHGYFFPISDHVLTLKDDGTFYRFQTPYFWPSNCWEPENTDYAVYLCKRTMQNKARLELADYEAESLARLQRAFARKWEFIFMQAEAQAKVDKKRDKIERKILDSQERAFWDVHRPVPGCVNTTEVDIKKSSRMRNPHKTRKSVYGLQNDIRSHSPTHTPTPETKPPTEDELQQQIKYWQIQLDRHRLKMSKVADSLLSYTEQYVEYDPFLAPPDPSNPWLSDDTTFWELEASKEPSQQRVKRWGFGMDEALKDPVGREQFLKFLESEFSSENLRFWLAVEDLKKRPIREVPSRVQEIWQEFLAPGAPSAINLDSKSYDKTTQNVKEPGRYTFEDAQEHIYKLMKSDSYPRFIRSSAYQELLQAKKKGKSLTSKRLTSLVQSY
As to the kind of experiment: FRET between CFP-Gβ5 and YFP-RGS7 in COS-7 cell lysates. Conditions: GST-R7DEP added to COS-7 lysate; GST alone had no effect. Type of assay: binding, bovine. An excerpt:
To measure FRET, COS-7 cells were transiently transfected with plasmids encoding YFP-RGS7 and CFP-Gβ5. Control cells were co-transfected with YFP-RGS7 together with untagged Gβ5, and CFP-Gβ5 together with untagged RGS7. The lysates of these cells were subjected to spectroscopic analysis, as described in Example 1. Shown are the resulting FRET spectra obtained after subtraction of the YFP background fluorescence during the CFP excitation and CFP “bleed-through” into the YFP emission channel. A. Right panel: GST R7-DEP (black symbols) or buffer (open symbols) was added to the lysate prior to recording of the spectra. […]
To permit the association of exogenously added DEP domain with Gβ5, the intra-molecular interaction between the intrinsic DEP and Gβ5 must be dynamic and have relatively low affinity. To investigate this hypothesis, a protein-protein binding assay based on fluorescence resonance energy transfer (FRET) was devised. […]
FRET between CFP— and YFP-tagged proteins was determined on a photon counting spectrofluorometer (PTI, Inc.) (28). Briefly, the cell lysates were placed in a 4 ml quartz cuvette, and the spectra were recorded at room temperature with continuous mixing of the lysate with a magnetic stirrer. CFP was excited at 433 nm (2-4 nm slit width, depending on the intensity of fluorescence signal) and the emission spectra were obtained between 465 and 555 nm. […]

Assay [7] has as its target T3, native RGS7-Gβ5 complex from mouse brain extract (mouse, UniProt P62881 1-353; O54829 1-469, limits assumed).
T3 construct: Native complex in a cholate extract of brain membranes; may also carry R7BP; also called native Gβ5-RGS7; Gβ5-RGS complexes (brain)
T3 sequence (looked up) 1: T2 sequence (O14775 1-353 isoform O14775-2) with E4D, I242V
T3 sequence (looked up) 2: T2 sequence (O46470 1-469) with Q259H, A298V, K371R, K452R, S456T
As to the kind of experiment: GST pull-down from mouse brain extract, western blot with anti-RGS7 and anti-Gβ5.

muscarinic acetylcholine M3 receptor (M3R), full length, expressed in CHO cells (human), sequence (P20309 whole entry): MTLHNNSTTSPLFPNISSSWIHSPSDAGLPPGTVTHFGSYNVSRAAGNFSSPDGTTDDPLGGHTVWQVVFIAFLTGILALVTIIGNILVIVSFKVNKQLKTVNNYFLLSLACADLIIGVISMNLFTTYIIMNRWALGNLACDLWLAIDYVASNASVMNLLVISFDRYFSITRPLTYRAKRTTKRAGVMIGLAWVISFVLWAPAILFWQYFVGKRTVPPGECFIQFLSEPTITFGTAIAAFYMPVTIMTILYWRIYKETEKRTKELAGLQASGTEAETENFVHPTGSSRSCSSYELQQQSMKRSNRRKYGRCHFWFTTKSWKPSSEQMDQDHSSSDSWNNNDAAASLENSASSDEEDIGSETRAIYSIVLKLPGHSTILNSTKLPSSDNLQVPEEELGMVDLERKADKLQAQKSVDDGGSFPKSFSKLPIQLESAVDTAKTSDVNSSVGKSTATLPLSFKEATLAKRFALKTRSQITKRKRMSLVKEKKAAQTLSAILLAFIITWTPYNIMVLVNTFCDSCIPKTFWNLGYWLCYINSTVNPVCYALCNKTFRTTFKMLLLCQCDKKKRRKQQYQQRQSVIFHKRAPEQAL
T1 sequence (P08515 whole entry): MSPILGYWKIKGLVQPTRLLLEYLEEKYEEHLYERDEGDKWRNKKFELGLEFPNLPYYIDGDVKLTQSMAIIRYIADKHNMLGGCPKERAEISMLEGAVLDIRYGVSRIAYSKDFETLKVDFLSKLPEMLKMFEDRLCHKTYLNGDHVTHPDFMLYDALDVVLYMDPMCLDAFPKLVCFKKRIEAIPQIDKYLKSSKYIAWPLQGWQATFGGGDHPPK

For “GST-R7DEP ED/SG mutant (E73S/D74G) (from UniProt O46470 34-124)”, the fold reduction in the amount of Gβ5 pulled down relative to the wild-type DEP domain in assay [1], in assay [2] and in assay [3] was greater than 10 fold each time. “full-length RGS7 ED/SG mutant (RGS7^ED/SG, E73S/D74G) co-expressed with Gβ5 (from UniProt O46470 1-469)”: the reduction of the amplitude of carbachol-induced Ca^2+ transients in CHO-R7BP cells in assay [4] is greater than 50%.

B1: YFP-DEP (amino acids 1-124 of full-length bovine RGS7 fused to the C-terminus of YFP) (other, UniProt O46470 1-124, looked up)
chain: MAQGNNYGQTSNGVADESPNMLVYRKMEDVIARMQDEKNGIPIRTVKSFLSKIPSVFSGSDIVQWLIKNLTIEDPVEALHLGTLMAAHGYFFPISDHVLTLKDDGTFYRFQTPYFWPSNCWEPE
notes: range 1-124; also called DEP domain; DEP domain of RGS7; not shown: yellow fluorescent protein (YFP) of the pEYFPC1 vector
In the case of B1, the binding result in assay [5] is “no binding”.

B2: GST-R7DEP: GST fusion construct containing the amino acids 34-124 of bovine RGS7 (protein)
chain: MQDEKNGIPIRTVKSFLSKIPSVFSGSDIVQWLIKNLTIEDPVEALHLGTLMAAHGYFFPISDHVLTLKDDGTFYRFQTPYFWPSNCWEPE
modifications: left off: a dimerising Fc or GST
notes: GST fusion construct containing the amino acids 34-124 of bovine RGS7
For B2, the “FRET reduction, of the total FRET signal” value in assay [6] was 15-20%.

B3: GST-R9DEP (GST fusion of the putative DEP domain of RGS9, amino acids 20-117 of bovine RGS9) (other, UniProt O46469 20-117, looked up)
chain: IEALVKDMQDPDTGVRVQNQKVKVVSIPHAMTGSDVLQWISQRLWISGLEAQNLGNFIVKYGYIYPLQDPRNLTLKPDSSLYRFQTPYFWPTQQWPAE
notes: range 20-117; not shown: glutathione S-transferase (GST) tag of the pGEX-KG vector
In the case of B3, the binding result in assay [7] is reported as “no binding”.
